Data from patent US20260166140A1, “Combinations Involving Epidermal Growth Factor Receptor Tyrosine Kinase Inhibitors For the Treatment of Cancer” (AstraZeneca AB, priority 2022, published 2026).

Experiments:
[1] = system: multiple additional solid tumor indications; conditions: cited from earlier work
[2] = system: H1975 cells; assay: Internalization of AF647-labeled antibodies, live cell confocal fluorescence microscopy; assay type: cell-based; conditions: for internalization profile: single-arm control antibodies
Description: (§1) Internalization kinetics of AlexaFluor647 (AF647) primary-labeled DuetMabs: RAA22/B09 and QD6/B09 antibodies was assessed in vitro using the EGFR and c-MET expressing cell line, H1975. Each antibody was pre-bound to cells and antibody translocation from cell surface to cytoplasm was then monitored using live cell confocal fluorescence microscopy. Both antibodies localized primarily on the cell surface before (T=0) subjecting to internalization conditions and were translocated to the cytoplasm area after 1 hour (data not shown). Kinetic images were taken every 5 min over the time course of internalization and were processed using a quantitative algorithm to determine internalization kinetic constants and half-times.
To evaluate the mode of antibody internalization and to investigate contribution of each arm to overall internalization of the DuetMabs, we evaluated internalization of single-arm specific control antibody molecules, QD6/IgG and B09/IgG, against duet QD6/B09, and RAA22/IgG and B09/IgG against duet RAA22/B09 in H1975 cells, which express both EGFR and c-MET. Since only one arm is specific for the target receptor, the control antibody can only internalize via one receptor eliminating dual receptor targeting and cross-linking as mode of internalization.

[3] = system: HCC827 cells; assay: as above; assay type: cell-based; conditions: HCC827 cells
Description: as §1
Since binding of both EGFR and c-MET arms to target receptor promoted RAA22/B09 receptor internalization in H1975 cells, we examined if the increased number of EGFR and c-MET receptors would affect internalization properties. The respective receptor levels determined by Western Blot were ˜33,000 for EGFR and ˜50,000 for c-MET in H1975 cells and ˜790,000 for EGFR and ˜523,000 for c-MET in HCC827 cells.

[4] = system: Cynomolgus monkey EGFR; assay: SPR (BIAcore T200) antibody capture kinetics; assay type: binding; conditions: 25° C.
Description: (§2) Mouse anti-human IgG was immobilized on a CM4 sensor chip with a final surface density of ˜2000 resonance units (RUs). A reference flow cell surface was also prepared on this sensor chip using identical immobilization protocol. Test and control article antibodies were prepared at 5-20 nM in instrument buffer (HBS-EP buffer; 0.01M HEPES, pH 7.4, 0.15M NaCl, 3 mM EDTA, and 0.005% P-20), along with 3-fold serial dilutions of purified EGFR (0.27-200 nM human, 0.4-900 nM cyno, and 4-1000 nM murine) or cMET proteins (0.27 to 66 nM human and 0.27-22 nM cyno) in instrument buffer. A sequential approach was utilized for kinetic measurements. Antibodies were first injected over the capture surface, at a flow rate of 10 μL/minute. Once the binding of the captured antibody stabilized, a single concentration of the analyte was injected over both capture and reference surfaces, at a flow rate of 75 μL/minute. The resulting binding response curves yielded the association phase data. Following the injection of analyte, the flow was then switched back to instrument buffer for 15 minutes to permit the collection of dissociation phase data, followed by a 1-minute pulse of 10 mM glycine, pH 1.5, to regenerate the antibody-captured surface on the chip. Binding responses against test and control article antibodies were recorded from duplicate injections of each concentration of analyte. In addition, several buffer injections were interspersed throughout the injection series. Select buffer injections were used along with the reference cell responses to correct the raw data sets for injection artifacts and/or nonspecific binding interactions, commonly referred to as “double referencing”. Corrected binding data were globally fit to a 1:1 binding model (Biacore T200 Evaluation software 2.0, GE Healthcare, Pittsburgh, PA).

[5] = target: T1, Human EGFR (Homo sapiens, UniProt P00533); assay: SPR (BIAcore T200) antibody capture kinetics; assay type: binding; conditions: 25° C.
Description: as §2

[6] = target: T2, Mouse EGFR (Mus musculus, UniProt Q01279); assay: SPR (BIAcore T200) antibody capture kinetics; assay type: binding; conditions: 25° C.
T2 construct: purchased SinoBiological 51091-M08H
Description: as §2

[7] = system: Cynomolgus monkey EGFR; assay: ELISA species cross reactivity; assay type: binding
Description: (§3) Specificity for EGFR and cMET species paralogs and closely related family members was determined by ELISA. Briefly, antigen solutions were prepared in PBS at 1 μg/mL and 50 microliters was coated onto half area ELISA assay plates. Plates were washed and blocked with 1% BSA in PBS containing 0.005% Tween-20 (PBS-T) for one hour at room temperature. The wells were washed 4 times in PBS-T. As set out in FIG. 3, the primary antibodies used where: R374 (a non-binding IgG1 isotype control antibody), B09 (anti-cMET antibody), QD6 (anti-EGFR antibody), RAA22 (anti-EGFR antibody), QD6/B09 (bispecific EGFR/c-MET DuetMAb), RAA22/B09 (bispecific EGFR/c-MET DuetMAb), PaniX (anti-EGFR antibody), MetMab (anti-cMET antibody) and Mab11311 (anti-HER4 antibody). Wells were incubated with 50 microliters of the indicated primary antibodies diluted in PBS-T in a 1:3 dilution series, starting at 10 μg/mL and ending at 0.002 μg/mL, except for the HER4 binding mAb control, MAB1131, for which the series started at 1 μg/mL. The wells were washed 4 times in PBS-T, then 50 μl of goat anti-human Fab HRP-labeled secondary antibody, diluted 1:5000 in PBS-T, was added to each well and incubated for one hour at room temperature. […] 50 microliters of TMB stop solution was added to all wells and the absorbance was read at 450 nm on a SpectraMax M5 microplate reader. Data were analyzed in the SoftMax Pro 5 software and plotted using GraphPad Prism 7 graphing software.
(§4) To determine the species cross reactivity, ELISA assays were carried out as described above. […] There was no detectable binding of any of the antibodies to mouse cMET.

[8] = target: T1, Human EGFR; assay: ELISA species cross reactivity; assay type: binding; conditions: antibody 10 to 0.002 μg/mL
Description: as §3, §4

[9] = target: T2, Mouse EGFR; assay: ELISA species cross reactivity; assay type: binding
Description: as §3, §4

For ABT-414, the efficacy ([1]; Phase II trials, tolerated doses) is listed as “limited efficacy at tolerated doses” and the ocular toxicities ([1]; treated patients) is listed as “concerning ocular toxicities were frequently observed in treated patients”.

B1: B09/IgG: single-arm specific control antibody molecule with B09 cMET arm (antibody, V domains shown)
VH: QVQLVQSGAEVKKPGASVKVSCKASGYTFTDYYIHWVRQATGQGLEWMGWMNPNSGNTGYAQKFQGRVTMTRDTSISTAYMELSSLRSEDTAVYYCARGQGYTHSWGQGTMVTVSS
VL: DIQMTQSPSTLSASVGDRVTITCRASEGIYHWLAWYQQKPGKAPKLLIYKASSLASGVPSRFSGSGSGTEFTLTISSLQPDDFATYYCQQYSNYPPTFGGGTKLEIK
modifications: left off: another chain or arm of the molecule; a dimerising Fc or GST; small tags and cut ends
For B1, the internalization profile [2] was “very small level of internalization” and the internalization profile [3] was “dissociates from cell membrane”.

B2: RAA22/IgG: single-arm specific control antibody molecule with RAA22 EGFR arm (antibody, V domains shown)
VH: QVQLVQSGAEVKKPGSSVKVSCKASGGTFSDNDFSWVRQAPGQGLEWMGAIVAVFRTETYAQKFQDRVKITADISTRTTYMELSSLRSEDTAVYYCARRLMSAISGPGAPLLMWGQGTLVTVSS
VL: QSALTQPRSVSGSPGQSVTISCTGTSSDVGGYNYVSWYQQHPGKAPKLMIYDVSKRPSGVPDRFSGSKSGNTASLTISGLQAEDEADYYCSSYTSSDTLEIFGGGTKLTVL
With B2 the “number of molecules, fold less than for the RAA22-B09 DuetMab (based on fluorescent intensity)” value [2] was 10.98 fold, the internalization profile [2] was “rapid internalization” and the “intensity profiles, fold lower than RAA22/B09” value [3] was roughly 10 fold.

B3: QD6/IgG: single-arm specific control antibody molecule with QD6 EGFR arm (antibody, V domains shown)
VH: QVQLVQSGAEVKKPGSSVKVSCKASGGTFSDNDFSWVRQAPGQGLEWMGAIVAVVRTETYAQKFQDRVKITADISTRTTYMELSSLRSEDTAVYYCARRLMSAISGPGAPLLMWGQGTLVTVSS
VL: QSALTQPRSVSGSPGQSVTISCTGTSSDVGGYNYVSWYQQHPGKAPKLMIYDVSERPSGVPDRFSGSKSGNTASLTISGLQAEDEADYYCFSYTSSDTLEIFGGGTKLTVL
With B3 the internalization profile [2] was “near-identical internalization time course as the QD6/B09 DuetMab”.

B4: QD6 IgG: high affinity anti-EGFR IgG1 antibody clone, VH SEQ ID NO: 18, VL SEQ ID NO: 22 (antibody, V domains shown)
VH: QVQLVQSGAEVKKPGSSVKVSCKASGGTFSDNDFSWVRQAPGQGLEWMGAIVAVVRTETYAQKFQDRVKITADISTRTTYMELSSLRSEDTAVYYCARRLMSAISGPGAPLLMWGQGTLVTVSS
VL: QSALTQPRSVSGSPGQSVTISCTGTSSDVGGYNYVSWYQQHPGKAPKLMIYDVSERPSGVPDRFSGSKSGNTASLTISGLQAEDEADYYCFSYTSSDTLEIFGGGTKLTVL
In the case of B4, the Koff [4] is reported as 0.000288 s⁻¹, the Kon [4] is reported as 114000 M⁻¹ s⁻¹ and the Koff [5] is reported as 0.000292 s⁻¹. The Kon ([5]; 1:1 binding model) was 148000 M⁻¹ s⁻¹, the Koff [6] was 0.000735 s⁻¹ and the Kon [6] was 167000 M⁻¹ s⁻¹. For the same molecule, the ELISA binding [7] was “gave robust signals”, the ELISA binding [8] was “gave robust signals” and the ELISA binding [9] was “gave robust signals”.
